Measurements from patent publication US20210198377A1 (XDCEXPLORER SHANGHAI, published 2021).
Numbering of substitutions follows the chain as printed.

Legend:
[1] = target: T1, biotinylated recombinant TPBG protein (Homo sapiens (Human), UniProt Q13641 32-355, Biotinylated; the number and positions of the biotin labels are not stated and the letters do not carry them.); assay: competitive ELISA; row antibody 5 ug/mL; competitor: coated 12B12C7C3
T1 sequence: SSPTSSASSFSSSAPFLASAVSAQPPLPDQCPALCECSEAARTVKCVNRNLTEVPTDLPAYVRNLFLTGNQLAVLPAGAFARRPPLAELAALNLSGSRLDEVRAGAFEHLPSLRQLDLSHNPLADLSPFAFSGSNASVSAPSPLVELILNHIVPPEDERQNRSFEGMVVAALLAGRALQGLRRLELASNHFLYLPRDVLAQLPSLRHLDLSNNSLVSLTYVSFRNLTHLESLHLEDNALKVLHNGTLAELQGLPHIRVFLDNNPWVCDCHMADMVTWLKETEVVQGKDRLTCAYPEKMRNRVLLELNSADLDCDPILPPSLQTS
Description: (§1) The purified antibodies to be tested were diluted to 1 μg/mL using PBS, and coated with high-adsorption of 96-well microplates at […]. After overnight coating at 4[…], 250 μL of blocking buffer (PBS containing 0.01% (v/v) Tween20 and 1% (w/w) BSA) was added to block coating at room temperature for 1 h, and 0.05 μg/mL of biotinylated recombinant TPBG protein was added to each well. Meanwhile, 5 μg/mL final concentration of competitive antibodies, i.e. the purified antibodies obtained from Embodiment 2 with the clone number of 12B12C7C3, 5G4H10G5, 37H9C5G2, 39A11G5F2, 52C9E9F6, 28D4E6A9, 36A10D8B12, 99E12C7H1, 103E2E9C2 and 106D5G3D10 were added and incubated at 25-37° C. for 1-2 h. The plates were washed three times with plate-washing buffer (PBS containing 0.01% (v/v) Tween20) and HRP (horseradish peroxidase)-labeled streptavidin (purchased from Sigma) was added. After incubating at 37° C. for 0.5 h, the plates were washed three times with plate-washing buffer (PBS containing 0.01% (v/v) Tween20), and 100 μL of TMB substrate was added to each well and the plates were further incubated at room temperature for 30 min prior to adding 100 μL of stop buffer (1.0N HCl) to each well. A₄₅₀ₙₘ values were read using an ELISA microplate reader (SpectraMax 384plus purchased from Molecular Device) and results were shown in FIG. 6. The higher the values of the competition rate, the closer the antigen surface of the two antibodies are.

[2] = target: T2, human TPBG-hFc (human, UniProt Q13641 32-355); assay: ELISA, coated human TPBG-hFc 1.0 ug/mL; antibody 0.0002 nM
T2 construct: also called immunogen A; hFc tagged TPBG protein; not shown: The human IgG Fc fragment of the pCpC vector (Invitrogen V044-50) and any linker to it
T2 sequence: T1 sequence
Description: The purified immunogen A (as for its method of preparation please refer to step 1 in Example 1) diluting with PBS to a final concentration of 1.0 μg/mL was aliquoted into a 96-well ELISA plate at 100 μL per well, and sealed with a parafilm and incubated at 4° C. overnight. The plate was washed twice with plate washing buffer (PBS containing 0.01% (v/v) Tween 20), and blocked with blocking buffer (PBS containing 0.01% (v/v) Tween 20 and 1% (w/w) BSA) at room temperature for 2 h. The blocking buffer was discarded, and 100 μL per well of the purified antibody obtained from Embodiment 2 was added. After incubating at 37° C. for 2 h, the plate was washed for three times with plate washing buffer (PBS containing 0.01% (v/v) Tween 20). HRP (horseradish peroxidase)-labeled secondary antibody (purchased from Sigma) was added and incubated at 37° C. for 2 h, and the plate was washed for three times using plate washing buffer (PBS containing 0.01% (v/v) Tween 20). 100 μL of TMB substrate was aliquoted into each well, incubated at room temperature for 30 min, and 100 μL of stop buffer (1.0N HCl) per well was subsequently added. A₄₅₀ₙₘ values were read using the ELISA plate reader (SpectraMax 384plus purchased from Molecular Device), and the results were shown in FIG. 6 and table 6. […] In Table 6 the IgG control herein is a mice IgG control, the data in the Table are OD₄₅₀ₘₙ values, and Blank means the OD₄₅₀ₘₙ value when there is only PBS buffer in the plate.

[3] = target: T1, biotinylated recombinant TPBG protein; assay: competitive ELISA; row antibody 5 ug/mL; competitor: coated 106D5G3D10
Description: as §1

B1: 5G4H10G5 (antibody, V domains shown)
VH: EVQLVESGGDLVQPGGSLKLFCAASGFTFSTYGLSWVRQTPDKRLELVATITNNDGSAYYPDSVKGRFTISRDKAKNTLFLQMTSLKSEDTAMYYCARETGFGSSYLFDYWGQGTLVTVSA
VL: NIVMTQTPKFLLVSAGDRVTITCKASQSVSNDVAWYQQKPGQSPKLLIYFATNRYTGVPNRFTGSGYGTEFTFTISSVQAEDLAVYFCQQDYSSPTFGGGTKLEIK
notes: Mouse hybridoma antibody purified from culture supernatant; also called TPBG antibody; lead antibody
[1]
  competition rate: 9%
[2]
  OD450nm: 0.08 OD450nm
[3]
  competition rate: 3%

B2: 37H9C5G2 (antibody, V domains shown)
VH: QVQLQQSDAELVRPGASVKMSCKVSGYTFTDHTIHWMKQRPEQGLEWIGYIYPRDGSGTYNEKFKGKATLTADKSSSTAYMQLNSLTSEDSAVYFCARDGSSHYWYFDVWGTGTTVTVSS
VL: DIQMTQSPASLSASVGETVTITCRASEIIYNYLAWYQQKQGKSPQLLVYNAKTLAEGVPSRFSGSYSGTQFSLNINSLQSEDFGIYYCQHHHDTPLTFGAGTKLDLK
notes: as for B1
[1]
  competition rate: 6%
[2]
  OD450nm: 0.09 OD450nm
[3]
  competition rate: 4%

B3: 39A11G5F2 (antibody, V domains shown)
VH: QVQLQQSGAELMKPGASMRLSCKATGYTFTGYWLEWIKRRPGHGLEWIGEILPGRGSTNYNEKFKGKATFTAETSSNTAYMQLTSLTTEDSAIYYCARGGRDFDNWGQGTTLTVSS
VL: DIQMTQSTSSLSASLGDRVTISCSASQGINNHLNWYQQKPDGTVKLLIYYTSSLHSGVPSRFSGSGSGTDYSLTISNLEPEDIAIYYCQQFSKLPYTFGGGTKVEMK
notes: as for B1
[1]
  competition rate: 9%
[2]
  OD450nm: 0.09 OD450nm
[3]
  competition rate: 4%

B4: 52C9E9F6 (antibody, V domains shown)
VH: QVQLQQSGAELMKPGASVKLSCKATGYTFTGYWIEWIKQRPGHGLEWIGEILPGRGSTDYNEKFKGKATFTADTSSNTAYMQLSSLTTEDSAIYYCTRGRLDFTYWGQGTLVTVSA
VL: B3 VL with S7T, N30R, H32Y, I85T, F91Y, L94V, Y96W, V104L, M106I
notes: as for B1
[1]
  competition rate: 27%
[2]
  OD450nm: 0.09 OD450nm
[3]
  competition rate: 7%

B5: 28D4E6A9 (antibody, V domains shown)
VH: DVQLVESGGGLVRPGGSLKLSCAASGFTFSNYVMSWARQSPEKRLEWVAEISTGGSHTYYSDTVTGRFTISRDNAKKALYLEMSSLRSEDTAIYYCIMFYYGSSYSMDYWGQGTSVTVSS
VL: DIQMTQSTSSLSASLGDRITISCRASQDIRNYLNWYQQKPDGTVKLLIYHTSRLHSGVPSRFSGSGSGTDYSLTISNLEQEDIATYFCQQGDTLPLTFGAGTRLELK
notes: as for B1
[1]
  competition rate: 24%
[2]
  OD450nm: 0.1 OD450nm
[3]
  competition rate: 5%

B6: 36A10D8B12 (antibody, V domains shown)
VH: DVQLQESGPGMVKPSQSLSLTCTVTGYSITSGYDWHWIRHFPGNKLEWMGYISYSGNTNYNPSLKSRISITHNTSKNHFFLRLNSVTTEDTATYYCARGYGNWDAMDYWGQGTSVTVSS
VL: DIVMTQSQKFMSTSVGDRVSVTCKASQIVDTNVAWYQQKPGQSPKALISSASYRYSGVPDRFTGSGSGTDFTLTISNVQSEDLAEYFCQQYNSYPLTFGAGTKLELT
notes: as for B1
[1]
  competition rate: 21%
[2]
  OD450nm: 0.16 OD450nm
[3]
  competition rate: 14%

B7: 99E12C7H1 (antibody, V domains shown)
VH: QIQLVQSGPELKKPGETVKISCKPSGYTFTAYGLSWVKQAPGQGFQWMGWINTYSGVPTYTDDFKGRFAFSLETSAGTASLQITNLKNEDTATYFCARSSIPPFEYWGPGTTLTVSS
VL: SFVMTQSPKFLLVSVGDRVTITCKASQSVSNDVAWYQQKPGQPPRVLIYFASNRYTGVPDRFTGSGYGTDFTFTISTVQAEDLALYFCQQDYSSPWTFGGGTKLEIK
notes: as for B1
[1]
  competition rate: 11%
[2]
  OD450nm: 0.11 OD450nm
[3]
  competition rate: 12%

B8: 103E2E9C2 (antibody, V domains shown)
VH: EVQLQQSGPVLVKPGASVKMSCEASGYSFIDYYMSWVKQSRGRSLEWIGVFNPYSGEIIYNQKFKGKATLTVDKSSSTAYMELSSLTSEDSGVYSCARLRISYYAIDYWGQGTSVAVSS
VL: ENVLTQSPAIMSASPGEKVTMTCRATSSVSSGHFHWYQQKSGASPKVWIYSTSNLASGVPARFSGSGSGTSFSLTISSVEAEDVATYFCQQYSGYPLTFGGGTKLEIK
notes: as for B1
[1]
  competition rate: 0%
[2]
  OD450nm: 0.1 OD450nm
[3]
  competition rate: 0%

B9: 106D5G3D10 (antibody, V domains shown)
VH: EVQLVESGGGLVKPGGSLKLSCAASGFTFSDYGMHWVRQAPEKGLEWVGYISSGTYVVYYADTVKGRFTISRDNAKNTLFLQMTSLRSEDTAIYYCSTYGSNPFDYWGQGTTLTVSS
VL: QLVLTQSPAIMSASPGEKVTITCSATSSVSSMHWFQQKPVTSPKLWIYSTSNLASGVPTRFSGSGSGTSYSLTISRMEAEDAATYYCQQRSGYPPIFTFGSGTKLEIK
notes: as for B1
[1]
  competition rate: 95%
[2]
  OD450nm: 0.11 OD450nm
[3]
  competition rate: 94%

B10: 12B12C7C3 (antibody, V domains shown)
VH: DVQLVESGGGLVQPGGSRKLSCAASGFTFSNFGMHWVRQAPEKGLEWVAYISSGSTSFYYADTVKGRFTISRDNPKNTLFLQMTSLRSEDTAMYYCSRTNSLLRGFFDAWGAGTTVTVSS
VL: DIVLTQSPASLAVSLGQRATISCRASQSVSSSSYTYLHWYQQKPGQPPKLLIKSASNLESGVPARFSGTGSGTDFTLNIHPVEEEDTATYYCQHSWEIPLTFGAGTKLELK
notes: as for B1
[1]
  competition rate: 97%
[2]
  OD450nm: 0.1 OD450nm
[3]
  competition rate: 96%
